Reference: the nanobody polyreactivity screen of Harvey et al. (2022)

Assay: yeast display, Sf9 membrane polyspecificity reagent, FACS + sequencing; frameworks hold sequencing errors
Summary of the method: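 Nanobodies came from a synthetic yeast display library in Saccharomyces cerevisiae BJ5465, induced with galactose for 36–48 hours and stained for 1 hour at 4 °C with 10% biotinylated, detergent-solubilized Sf9 membrane reagent. Cells were enriched on streptavidin microbeads and then FACS-sorted, with low and high (top ~1%) gates set on anti-HA fluorescence for expression and streptavidin fluorescence for reagent binding. Each polyreactivity label reflects the gate a clone came from. Genes were amplified by colony PCR, sequenced by MiSeq 2 × 250 and filtered by CDR length.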

Row | Sequence | polyreactivity (PSR sort gate)
1 | QVQLVESGGGLVQAGGSHRLSCAASGSTFVPYTMGWYRQAPGKERELVAAISGSGGTDYADSVKGRFTISRDNAKNTVYLQMNSLKPEDTAVYYCATDGLDFWFIYDYWGQGTQVTVST | low polyreactivity
2 | QVQLVESGGGLVQAGGSHRLSCAASGSTFVRNAMGWYRPAPAKERGLVAGISTSGGRTYYADSVKGRFTISRDNAKNTVYLQMNSLKPEDTAVYDCAVLAWRSIAYDKYDYWGQGTQVTVSS | high polyreactivity
3 | QVQLVESGGGLVQAGGSHRLSCAASGSTLSVNAMGWYRQAPGKERELGAAIDFDGGDTYYADSVKGRFTLSRDNAKNTVYLQMNSLKPEDTAVYSCNAALRWKYDWVQGTQVTVSS | low polyreactivity
4 | QVQLVESGGGLVQAGGSHRLSCAASGYIFGYNAMGWYRQAPGKEREFVAAIRFSGGSTYYADSVKGRFTISRDNAKNTVYLQMNSMKPEDTAVYYCAKRGYGHLIPIAYEYWGQGTQVTVSS | low polyreactivity
5 | QVQLVESGGGLVQAGGSHRLSCASYGLIFESYVMGWDRQAPGKERELVAAIRSSGGSTYYADSVKGRFTISRDNAKNTVYLQMNCLNPEDTAVYYCAANYYYYLTISWWYAYDYWGQGTQVTVSS | low polyreactivity
6 | QVQLVESGGGLVQAGGSHRLSCDASGYIFRRYAMGWYRQAPGKERELVAAISWRGGSTYYADSVKGRFTISRDNAKNTVYLQMNSLKPEDSAVYYCAKVVPGAGHLDEYWGQGTQVTVSS | high polyreactivity
7 | QVQLVESGGGLVQAGGSHRLSFAASGSIFTRYAMGWYRPAHGKEREFVAGISWTGGSTYYADSVKGRFTISRDIAKNTVYLQMYRLKPEDTGVYYCAAGYWYSAFSGWWDYSDLYYWGQGTQVTVSS | high polyreactivity
8 | QVQLVESGGGLVQAGGSHRLSSAASGSILADNAMGWYRQAPGKERELVAAISLRGGRTYYADSVKGGFTISRDNAKNTVYLQMNSLKPEDTAVYYCAAVGSFHIVDYWGEGTQVTVSS | high polyreactivity
9 | QVQLVESGGGLVQAGGSIGLNCAASVSSYEPYVMGWYRQATGKEMELVGAIYESGDTTYYADSVKGRFTISRDNAKNTVYLQMNSLKPEDSAVYYCNAEDPSIYGWWRVGEYDYWGQGTQVTVSS | low polyreactivity
10 | QVQLVESGGGLVQAGGSIRLSCAASGFTIFLNAMGWYRQAPGKERELVAAITVSGSSTYYADSVKGRFTISRDNAKNTVYLQMNSLKPEETAVYYCNAEIYSPYYTYDYWGQGTQVTVSS | low polyreactivity
11 | QVQLVESGGGLVQAGGSIRLSCAASGGTFSAYAMGWYRQAPGKERELVAAINISGGRTYYADSVKGRFTISRDNAKNTVYLQMNSLKPEDTAVYYCAAKNFRDRGNDYWGQGTQVTVSS | high polyreactivity
12 | QVQLVESGGGLVQAGGSIRLSCAASGITFAWNAMGWYRQAPGKERELVAAITKRGGSTYYADSVKGRFTISRDNAKNTVYLQMNSLKPEYTAFYYCAARGYISRYDARANAVQGNYWGQGTQVTVSS | high polyreactivity
13 | QVQLVESGGGLVQAGGSIRLSCAASGRIFYAYTMGWYRQAPVKERELVAAIRRRGTTYYADSVKGRFTISRDNAKNTVYLQMNSLKPDDTAVYYCAKDALGYRTSSALLGDYWGQGTQVTVSS | high polyreactivity
14 | QVQLVESGGGLVQAGGSIRLSCAASGRTFDSNAIGWYRQAAGKEWQLVAAISCSGDTTYDADTVKGRFTISRDNAKNTVYLQINILKPEDTAVYYCAADHDSYDSGYDYWGQGTQGTVSS | low polyreactivity
15 | QVQLVESGGGLVQAGGSIRLSCAASGRTFPAYAMGWYRQAPGKERELVAAISYSGGRTRYADSVKGRFTISRDNAKYTVYLQMNSLKPEDTAVYYCNRVIPTQSLRDYYWGQGTQVTVSS | high polyreactivity
16 | QVQLVESGGGLVQAGGSIRLSCAASGRTFYGYAMGRYRQAPGKEREFDAAISVGGVSTYYADSVKGRFTISRDNAKNTVYLQMNSLKPEDTAVYYCAAYTRYWSYGYWGQGTQVTVSS | high polyreactivity
17 | QVQLVESGGGLVQAGGSIRLSCAASGSIFYYGLGWYRQAPGKERELVAAITRGGSTYYADSVKGRFTISRDNAKNTVYLQMNSLKPEDTAVYYCAKYPVGGYDYWGQGTQVTVSS | low polyreactivity
18 | QVQLVESGGGLVQAGGSIRLSCAASGSLFEPYFMGWYRQAPGKERELVAAIRQTGGSTYYADSVKGRFTISRDTAKNTVYLQMNSLKPEDTAVYYCAKDSQTARDFDYWGQGTQGTVSS | low polyreactivity
19 | QVQLVESGGGLVQAGGSIRLSCAASGSTFRYYTMGWYRQAPGKERELVATITRDGRTYYADSVKGRFTISRDNAKNTVYLQMYSLKPEDTAVYYCNVRRAFSGWRGYDYWGQGTQVTVSS | high polyreactivity
20 | QVQLVESGGGLVQAGGSIRLSCAASGYTFVTNAMGWYRPAPGKERELVAAITTVGSTNYADSGKGRFTISRDNAKNTVYLQMNSLKPEDTAVYYCNANWYEWYGWGQGTQVTVSS | low polyreactivity
21 | QVQLVESGGGLVQAGGSIRLTCAASGTIFPYYAKGWYRQAPGKERELVAAISDSGDSTYYADSVKGRFTISRDNAKNTVYLQMNSLKPEDTAVYYCAADQTSSYYDPWGDYWGQGTQVTVSS | low polyreactivity
22 | QVQLVESGGGLVQAGGSLGLSCAASGFIFYAYVMGRYRQAPGKERELVAAISRNGGSTYYADSVKGRFTISRDNAKKSVYLQMNSLKPEDTAVYYCAALSYYRYSQEDDYWGQGTQVTVSS | high polyreactivity

Row | Sequence | polyreactivity (PSR sort gate)
23 | QVQLVESGGGLVQAGGSLGLSCAASGRIFSRNAMGWYRQATGKEREFVAAISRRGTSTYYADSVKGRFTISRDNAMNTVYLQMNSLNPESTAVYYCNVDQWASQRYSRYDYWGQGTQVTVSW | high polyreactivity
24 | QVQLVESGGGLVQAGGSLGLSCAASGRTFSQYAMGWYRQAPGKERELVAAISWSGGYTYYADSVKGRFTISRDNAKNTVYLQMNSLKPEDTAVYYCAAVGKGSARSSYPVLYDYWGQGTQVTVSS | low polyreactivity
25 | QVQLVESGGGLVQAGGSLGLSCAASGRTFYRNAMGWYRQAPGIERELVAPITNGGRTYYADSVKGRFTISRDNAKNTVNLQMNSLKPEDTAVYYCNALDAKLSEYEYWGQGTEVTVSS | low polyreactivity
26 | QVQLVESGGGLVQAGGSLGLSCAASGSIFRGYAMGWYIQAPGKERELVAAITSSGGSTNYADSVKGRFTISRDNAKNTVYLQMNSLKPEDTAVYYCAAGVIREKYYIWSDYEYDYWGQGTQVNVSS | low polyreactivity
27 | QVQLVESGGGLVQAGGSLGLSCAASGSTFAGNTMGWYRQAPGKERELVATITRGDSTNYADSVKGRFTISRDNAKNTVYLQMNSLIPEDTAVYYCAAVGRRRTTVGRYVRMDYWGQGTQVTVSS | low polyreactivity
28 | QVQLVESGGGLVQAGGSLGLSCAASGYIFGIYAMGWYRQAAGKERELVAAISSDSTYYADSVKGRFTISRDNAKNTVYLQMNSLKPEDTAVYYCAPYWFNQDYEFEYWGQGTQVTVSS | high polyreactivity
29 | QVQLVESGGGLVQAGGSLHLSCAASGFTFGRYAMGWFRQAPGKERELVAAISRRGGSTYYADSVKGRFTISRDNANNTVYLQMNSLKPEDTAVYYCNVDKYRIVGFHSPYDYWVQGTQVTVSS | high polyreactivity
30 | QVQLVESGGGLVQAGGSLLLICAASGRTFPYNAMGWYRQAPGKEREFVAAISVGGGSTYADSVKGRFTISRDNAKNTVYLQMNSLKPEDTAVYYCAAAYTKLYYYWGQGTQVTVSS | low polyreactivity
31 | QVQLVESGGGLVQAGGSLLLSCAASGFIFGLNAMGWYRQAPGKERELVAAIRSASSTNYADSVKGRFTISRDNAKNTVYLQMNSLKPEDTAVYYCAAEYVTYQQGFWGYDYWGQGTQVTVSS | low polyreactivity
32 | QVQLVESGGGLVQAGGSLLLSCAASGGTFRNNAMGWYRQAPVKERELVAAISSSGTSTYYADSVKGRFTISRDNVKNTVYLQMNSLKPEDTAVYYCNADALGSPWWDHMDYWGQGTQVTVSS | low polyreactivity
33 | QVQLVESGGGLVQAGGSLLLSCAASGGTFYYYAMGWYRQAPGKERELVASISSRGGSTYYADSVKGRFTISRDNAKNTVYLQMNSLKPEDTAVYYCAARSLYSGFGYWGQGTQVTVSS | high polyreactivity
34 | QVQLVESGGGLVQAGGSLLLSCAASGITFGVYAMGWYRQAPGKERELVAAISVNGGSTYYADSVKGRFTISRDNAKNTVYLQMNSLNPQDTAVYSCAADVLYYIDDDSIIEYDYWGQGTQVTVSS | low polyreactivity
35 | QVQLVESGGGLVQAGGSLLLSCAASGITFSYYAMGWYRQAPGKERELVAAISRTGTSTYYADSVKGRFTISRDNAKNTVYLQMKSLKPEDTAVYYCAAVPRHPYHDKYDYWGQGTQVTVSS | high polyreactivity
36 | QVQLVESGGGLVQAGGSLLLSCAASGITSYYYAMGGYRQAPGKERELVAAITRGGRTKYADSVKGRFTISRDNAKNTVYLQMNSLKPEDTAVYYCAADVWGQGTQVTVSS | high polyreactivity
37 | QVQLVESGGGLVQAGGSLLLSCAASGLIFDPYAMGWYRQAPGKERELVADISSGGSTNYADSVKGRFTISRDNAKNTVYLQMNSLKPEDTAVYYCNKTIILDGYYFSLTLYDSWGQGTQVTVSS | low polyreactivity
38 | QVQLVESGGGLVQAGGSLLLSCAASGLTFRRYNMGWYRQAPGKERELVAAISYSGGSTYYADSVKGRFTISRDNAKNTVYLQMNSLKPEDTAVYYCNDRYARVKQYGYWGQGTQVTVSS | low polyreactivity
39 | QVQLVESGGGLVQAGGSLLLSCAASGRIFQFYAMGWYRQAPGKERELVAGITTSGGSTYYADSVKGRFTISRDTAKNTVYLQMNSLKPEDTAVYYCAKRYYSSQFSKFGYWGQGSQVTVSS | high polyreactivity
40 | QVQLVESGGGLVQAGGSLLLSCAASGRIFYGNAMGWYRQAPGKERELVAPISSGTSTNYADSVKGRFTISRDNGKNTVYLQMNSLKPEDTAVYYCAAGSYSRYLYSLYFDFDYWGQGTQVTVSS | low polyreactivity
41 | QVQLVESGGGLVQAGGSLLLSCAASGRIIGYYAMGLYRQAPVKERELVAAISRRGGSTYYADSVKGRFTISRDNAKNTVYLQINSLKPEDTAVYYCNADRVLTRPRYDYWGQGTQVTVSS | low polyreactivity
42 | QVQLVESGGGLVQAGGSLLLSCAASGRTFAPYAMGWYRQAPGKERELVAAISSGGGNTYYADSVKGRFTISRDNAKNTVYLQMNSMKPEDTAVYYCAKPRARQDFDYWGQGTKVTVSS | high polyreactivity
43 | QVQLVESGGGLVQAGGSLLLSCAASGRTFWPYAMGWYRQAPGKERELVAAITSDGSTTYADSVTGRFTISRDNAKNTVYLQMNSLTPEDTAVYFCAAYGYYYYQTIPMDYWGQGTQVTVSS | low polyreactivity
